From doi:10.1101/2020.12.07.415216

Tests used:
[1] = molecular target: SARS-CoV RBD homotrimer (RBD appended onto a cystine-stabilized, hyperglycosylated GCN4 trimerization tag) (SARS-CoV) (UniProt P59594); experiment: SDS-PAGE under non-reducing conditions
[2] = molecular target: WIV1-CoV RBD homotrimer (RBD appended onto a cystine-stabilized, hyperglycosylated GCN4 trimerization tag) (WIV1-CoV); experiment: SDS-PAGE under non-reducing conditions

Row | Substance | stoichiometry N [1] | stoichiometry N [2]
1 | SARS-CoV RBD homotrimer (RBD appended onto a cystine-stabilized, hyperglycosylated GCN4 trimerization tag) (from UniProt P59594) | 3 | 
2 | WIV1-CoV RBD homotrimer (RBD appended onto a cystine-stabilized, hyperglycosylated GCN4 trimerization tag) |  | 3
